Results: patent publication US20020052481A1
Read-outs that look alike come from different tables or passages of the source.

Experiments:
[1] = target: recombinant gp120 from the laboratory-adapted strain HIV-1LAI (HIV-1LAI) (UniProt P03377); experiment: modified ELISA, gp120 captured on plate
[2] = target: recombinant gp120 from the primary isolate HIV-1JR-FL (HIV-1JR-FL); experiment: modified ELISA, gp120 captured on plate
[3] = target: HIV-1JR-FL envelope glycoprotein gp120/gp41 on cells (HIV-1JR-FL)
[4] = target: HIV-1LAI envelope glycoprotein gp120/gp41 on cells (HIV-1LAI) (UniProt P03377)
[5] = target: HIV-1JR-FL envelope glycoprotein gp120/gp41 on cells (HIV-1JR-FL); remark: listed apart in the source

Substance	EC50 [1] [nM]	EC50 [2] [nM]	EC50 [3] [nM]	EC50 [4] [nM]	EC50 [5] [nM]
CD4-IgG2 chimeric heterotetramer (Fc fusion)	1.47	1.27	–	–	–
^125I-CD4-IgG2 (Fc fusion)	1.05	2.36	10 to 40	19	12.8
